Legend:
[1] = target: Env of HIV-1 virus 6545.v4.c1 (HIV-1); assay: cell-based or functional assay
[2] = target: Env of HIV-1 virus 1006_11_C3_1601 (HIV-1); assay: cell-based or functional assay
[3] = target: Env of HIV-1 virus AC10.0.29 (HIV-1); assay: cell-based or functional assay
[4] = target: Env of HIV-1 virus Du172.17 (HIV-1); assay: cell-based or functional assay
[5] = target: Env of HIV-1 virus ZM53M.PB12 (HIV-1); assay: cell-based or functional assay
[6] = target: Env of HIV-1 virus Du422.1 (HIV-1); assay: cell-based or functional assay
[7] = target: Env of HIV-1 virus SF162.LS (HIV-1); assay: cell-based or functional assay
[8] = target: Env of HIV-1 virus 6540.v4.c1 (HIV-1); assay: cell-based or functional assay
[9] = target: Env of HIV-1 virus 3817.v2.c59 (HIV-1); assay: cell-based or functional assay
[10] = target: Env of HIV-1 virus 6535.3 (HIV-1); assay: cell-based or functional assay
[11] = target: Env of HIV-1 virus T250-4 (HIV-1); assay: cell-based or functional assay
[12] = target: Env of HIV-1 virus CAAN5342.A2 (HIV-1); assay: cell-based or functional assay
[13] = target: Env of HIV-1 virus BaL.26 (HIV-1); assay: cell-based or functional assay
[14] = target: Env of HIV-1 virus THRO4156.18 (HIV-1); assay: cell-based or functional assay
BaL-gp120-T499A = target: T1, BaL-gp120-T499A (HIV-1 BaL); assay: capture ELISA
T1 construct: domain: gp120

BaL-gp120-P498A = target: T2, BaL-gp120-P498A (HIV-1 BaL); assay: capture ELISA
T2 construct: domain: gp120

FLSC = target: T3, FLSC (HIV-1, UniProt P01730 26-208); assay: capture ELISA
T3 construct: not shown: linker of FLSC not described

BaL-gp120-E47AE91A = target: T4, BaL-gp120-E47AE91A (HIV-1 BaL); assay: capture ELISA
T4 construct: domain: gp120

BaL-gp120-T303A = target: T5, BaL-gp120-T303A (HIV-1 BaL); assay: capture ELISA
T5 construct: domain: gp120; glycan mutant, V3 region

BaL-gp120-W35A = target: T6, BaL-gp120-W35A (HIV-1 BaL); assay: capture ELISA
T6 construct: domain: gp120

BaL-gp120-D62A = target: T7, BaL-gp120-D62A (HIV-1 BaL); assay: capture ELISA
T7 construct: domain: gp120

BaL-gp120-D368R = target: T8, BaL-gp120-D368R (HIV-1 BaL); assay: capture ELISA
T8 construct: domain: gp120

B1: N60-B1.1 (antibody, V domains shown)
VH: QLQLQESGPGLVKPSGTLSLTCSVSGGSMNGRNIYWAWIRQTPGKGLEWIGSVDVSDEDAGRTFYKWPIKSRASISADTSKNQFSLKLSSVTVADTGVYYCARETLYYVGNGYYYPLDVFYYNYYMDVWGKGTTVSVSS
VL: not shown
notes: also called bnAb N60-B1.1
[1]
  IC50 Titer (ug/ml), neutralization: 0.37 µg/mL
[2]
  IC50 Titer (ug/ml), neutralization: 0.07 µg/mL
[3]
  IC50 Titer (ug/ml), neutralization: 0.14 µg/mL
[4]
  IC50 Titer (ug/ml), neutralization: 7.08 µg/mL
[5]
  IC50 Titer (ug/ml), neutralization: 0.019 µg/mL
[6]
  IC50 Titer (ug/ml), neutralization: 0.18 µg/mL
[7]
  IC50 Titer (ug/ml), neutralization: 0.019 µg/mL
[8]
  IC50 Titer (ug/ml), neutralization: 0.08 µg/mL
[9]
  IC50 Titer (ug/ml), neutralization: 1.53 µg/mL
[10]
  IC50 Titer (ug/ml), neutralization: 0.019 µg/mL
[11]
  IC50 Titer (ug/ml), neutralization: 0.019 µg/mL
[12]
  IC50 Titer (ug/ml), neutralization: 0.019 µg/mL
[13]
  IC50 Titer (ug/ml), neutralization: 0.019 µg/mL
[14]
  IC50 Titer (ug/ml), neutralization: 0.3 µg/mL
BaL-gp120-T499A
  % Binding: 102%
BaL-gp120-P498A
  % Binding: 101%
FLSC
  % Binding: 10%
BaL-gp120-E47AE91A
  % Binding: 73%
BaL-gp120-T303A
  % Binding: 2%
BaL-gp120-W35A
  % Binding: 132%
BaL-gp120-D62A
  % Binding: 80%
BaL-gp120-D368R
  % Binding: 99%

From patent US20150299268A1 (UNIVERSITY OF MARYLAND BALTIMORE, published 2015)
